Measurements published in US20180201654A1, “PEPTIDE INHIBITORS OF HAUSP DEUBIQUITINASE” (priority 2012, published 2018).

Assays:
[1] = target: T1, HAUSP TRAF domain HAUSP^62-205 (Homo sapiens, UniProt Q93009); format: binding; parameters: All residues of HAUSP^62-205, with the exception of Asp^62, are included in the final model; hexahistidine tag (TEV-cleavable) (cleaved yes); made in house; host or cells: E. coli BL21 (DE3) RIPL; details: for Ka / TΔS / ΔG: ITC, 20° C., pH 7.0
Description: FIG. 5. Typical isothermal titration calorimetric measurements of the interactions between the HAUSP TRAF domain and the vIRF4 protein derivatives or other peptides. Purified proteins and synthesized peptides were reconstituted in 150 mM NaCl and 10 mM HEPES (pH 7.0). The calorimetric assays were performed using a VPITC system. All experiments were carried out with a stirring speed of 300 rpm at 20° C., and the thermal power was recorded every 10 s. Data were analyzed using the ORIGIN software package (version 7.0). […] Each titration against the HAUSP TRAF domain is indicated in each panel.
Purified proteins and synthesized peptides (Peptron Inc., Deajeon, Korea) were reconstituted in 150 mM NaCl and 10 mM HEPES (pH 7.0). The calorimetric assays were performed using a VP-ITC system (MicroCal Inc., Northampton, Mass.). Samples were degassed by vacuum aspiration for 15 min prior to loading. All experiments were carried out with a stirring speed of 300 rpm at 20° C., and the thermal power was recorded every 10 s. Data were analyzed using the ORIGIN software package (version 7.0) supplied with the instrument. […] (SEQ ID NO: 6); EBNA1^435-449, […] (SEQ ID NO: 7); MDM2^137-152, […] […] (SEQ ID NO: 10). Each set of ITC experiments was repeated two or three times.

[2] = target: T1, HAUSP TRAF domain HAUSP^62-205; test: Size exclusion chromatography of complex formation in excess MDM2^137-152; format: binding; parameters: hexahistidine tag (TEV-cleavable) (cleaved yes); made in house; host or cells: E. coli BL21 (DE3) RIPL; details: in the presence of a 5-fold molar excess of MDM2^137-152

T1 sequence (Q93009 62-205): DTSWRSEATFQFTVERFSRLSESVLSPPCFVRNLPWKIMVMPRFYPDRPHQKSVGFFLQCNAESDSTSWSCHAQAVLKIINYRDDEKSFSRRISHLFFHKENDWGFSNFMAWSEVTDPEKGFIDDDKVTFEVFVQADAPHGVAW

B1: vIRF4^153-256 (protein)
chain: SDTREQSYEEAGAAAPAPPKAPSGLRGRPRKSNRYYNVGDITTEQKAACSVWIPVNEGASTSGMGSSGTRQVTQASSFTWRVPGDPPAPSTLTGPSDPHSSGAG
Ka [1]: 13.20 ± 0.85 10^6 M^−1 | TΔS [1]: -10.05 kcal/mol | ΔG [1]: -7.64 kcal/mol

B2: vIRF4^153-216 (protein)
chain: SDTREQSYEEAGAAAPAPPKAPSGLRGRPRKSNRYYNVGDITTEQKAACSVWIPVNEGASTSGM
complex formation with the TRAF domain [2]: formed a stable complex | TRAF binding affinity (in words) ([1]; ITC comparison): comparable TRAF binding affinity | Ka [1]: 1.84 ± 0.10 10^6 M^−1 | TΔS [1]: -7.35 kcal/mol | ΔG [1]: -8.41 kcal/mol
